# Numbering of substitutions follows the chain as printed. Names may count otherwise.
# B1: HW-17 chimeric rabbit-human IgG1 LA/LA/PG (antibody, V domains shown)
# VH: QSLGESRGRLVTPDETLTLTCTVSGIDLSSNAMSWVRQAPGEGLEWIGTINTGGRAYYASWAKGRFTISRTSTTVDLKMTSLTTEDTATYFCARERYSDGRAYDIWGPGTLVTISS
# VL: SFVLTQPASVQVNLGQTVSLTCTADTLSRRYASWYQQKPGQAPVLLIYTDSNRPSGIPDRFSGSSSGNTATLTISGAQAGDEADYYCATDDGSGSIYQYVFGGGTQLTVTG
# notes: Fc-silenced (L234A/L235A/P329G) IgG1, lambda; Alexa Fluor 647-labeled in single-step flow cytometry; Cluster C-1
# B2: HW-97 chimeric rabbit-human IgG1 LA/LA/PG (antibody, V domains shown)
# VH: QKQLVESGGRLVTPGTPLTLTCTVTGIDLSSHGMSWVRQAPGKGLEWIGVIYPSGSTWYASWARGRFTISKTSTTVDLKMTSLTTEDTATHFCARGDVGGADNNIWGPGTLVTVSS
# VL: B1 VL with N13D, D25E, R30S, T49R, S51T, N52S, I57V, D90S, I96S
# notes: Fc-silenced (L234A/L235A/P329G) IgG1, lambda; Alexa Fluor 647-labeled in single-step flow cytometry; Prototype of cluster C-97
# B3: HW-81 chimeric rabbit-human IgG1 LA/LA/PG (antibody, V domains shown)
# VH: QKQLVESGGGLVTPGGTLTLTCTVSGFSLSSNGVSWVRQAPGKGLEYIGLIRSIGSTYYATWAKGRFTISKTSTTVDLKITSPTTEDTATYFCARGGYRNGFKLWGPGTLVTVSS
# VL: QPVLTQSPSVSAALGASAKLTCTLSSAHKTYYIEWYQQQHPGKAPRYLMQLQSDGSYTKGTGVPDRFSGSSSGADRYLIISSVQAEDEADYICGVIDSAVYVFGGGTQLTVTG
# notes: Fc-silenced (L234A/L235A/P329G) IgG1, lambda; Alexa Fluor 647-labeled in single-step flow cytometry; Cluster C-45
# B4: HW-56 chimeric rabbit-human IgG1 LA/LA/PG (antibody, V domains shown)
# VH: QSVKESEGGLFKPTDTLTLTCTASGFTVSTNAVTWVRQAPGNGLEYIGTIGRSGSAYFASWAKRRSTLTRDINLNTVTLKMTSLTAADTATYFCVRGSPGYRTAISIWGPGTLVTISS
# VL: AVMTQTPSSTSAAVEGTVTINCQASQSISNRLSWFQQKPGQPPKLLIYQASTLASGVPSRFKGSGSGTEFTLTISGVQREDAATYYCLGSYSSSDASFGGGTKLEIKR
# notes: Fc-silenced (L234A/L235A/P329G) IgG1, kappa; Alexa Fluor 647-labeled in single-step flow cytometry; Cluster C-45
# B5: HW-8 chimeric rabbit-human IgG1 LA/LA/PG (antibody, V domains shown)
# VH: QSLEESGGRLVTPGTPLTLTCTVSGFSLSSYAMSWVRQAPGKGLEWIGAISTGGSTTYASWAKGRFTISKTSSTTVDLKMTSLTTEDTATYFCVRHFRLWGPGTLVTISS
# VL: QVLTQTPSSVSAAVGGTVTIKCQASQSIGSALAWFQQKPGQRPKLLIYRASNLASGVPSRFKGSGSGTEFALTISGVQREDAATYYCLGGAAAVWAFGAGTNVEIKR
# notes: as for B4
# B6: HW-101 chimeric rabbit-human IgG1 LA/LA/PG (antibody, V domains shown)
# VH: QEQLVESGGRLVTPGTPLTLTCKASGFSLGKYDMSWVRQAPGKGLEWIGTIYAGSGSTWYASWAKGRFTISKTSTTVDLKMTSLTTEDTATYFCARDFLGVNSIWGPGTLVTISS
# VL: SFVLTQPASVQVNLGQTVSLTCTADTLSRSYASWYQQKPDQAPVLLIHRDTSRPSGVPDRFSGSNSGNTATLTISGAQAGDEADYYCATSDGSGSNFHFVFGGGTQLTVTG
# notes: Fc-silenced (L234A/L235A/P329G) IgG1, lambda; Alexa Fluor 647-labeled in single-step flow cytometry; Cluster C-97
# Target: T1, ANXA1
# T1 construct: coated protein in the ELISA; also called ANXA1-His (R&D Systems)
# T1 chain: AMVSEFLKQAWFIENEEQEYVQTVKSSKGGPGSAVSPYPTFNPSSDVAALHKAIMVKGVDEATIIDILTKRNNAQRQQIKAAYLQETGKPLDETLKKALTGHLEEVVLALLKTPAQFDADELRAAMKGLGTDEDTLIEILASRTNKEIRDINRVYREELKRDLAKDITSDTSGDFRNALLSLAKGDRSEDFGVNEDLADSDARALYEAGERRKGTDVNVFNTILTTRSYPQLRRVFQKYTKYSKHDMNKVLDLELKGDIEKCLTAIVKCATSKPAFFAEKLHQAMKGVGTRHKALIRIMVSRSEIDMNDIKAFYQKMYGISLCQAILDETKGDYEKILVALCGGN
# Assay: ELISA on coated ANXA1-His
# Experimental: (§1) Recombinant purified ECDs (50-150 ng) of each putative target protein were coated, incubated with 150 ng of the indicated primary antibody, and binding was detected using a peroxidase-conjugated anti-human Fab secondary antibody. Heatmap represents averages of technical triplicates. (8B) Target validation via siRNA knockdown. H929 cells were transfected with siRNA pools targeting the putative antibody targets ICAM1, CADM1, and PTPRG. Cells were then subjected to cognate IgG binding analysis via flow cytometry. (NT, non-targeting siRNA).
# (§2) ELISA ELISA was conducted as described previously. Briefly, 50-150 ng of antigen was coated overnight in half-area 96-well plates at 4° C., blocked with 3% BSA at 37° C. for 1 h, and 150 ng of chimeric rabbit/human IgG1 was added, incubating for 2 h at 37° C. […] After incubating at 37° C. for 15 min-1 h (depending on intensity of controls), data were acquired using a SpectraMax M5 plate reader (Molecular Devices).
row,Binder,binding result
1,B1,no binding (tested: 150 ng IgG1 per well)
2,B2,no binding (tested: 150 ng IgG1 per well)
3,B3,no binding (tested: 150 ng IgG1 per well)
4,B4,no binding (tested: 150 ng IgG1 per well)
5,B5,no binding (tested: 150 ng IgG1 per well)
6,B6,no binding (tested: 150 ng IgG1 per well)

# Target: T2, PTP4A3 (PRL-3)
# T2 construct: coated protein in the ELISA; also called His-PTP4A3 (R&D Systems)
# T2 sequence (chain, as listed by the source limits assumed): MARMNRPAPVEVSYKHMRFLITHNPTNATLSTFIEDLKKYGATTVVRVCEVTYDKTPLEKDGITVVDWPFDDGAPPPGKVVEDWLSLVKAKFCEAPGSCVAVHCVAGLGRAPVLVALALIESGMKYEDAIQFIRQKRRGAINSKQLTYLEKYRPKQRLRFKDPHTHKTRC
# Assay: ELISA on coated His-PTP4A3, 150 ng IgG1; None 0.085
# Experimental: as §1, §2
row,Binder,ELISA Absorbance (405 nm-570 nm)
1,B1,0.072
2,B2,0.065
3,B3,0.08
4,B4,0.104
5,B5,0.075
6,B6,0.065

# Target: T3, CADM1-His (Acro Biosystems) (human, UniProt Q9BY67 45-374)
# T3 construct: Bought; also called CADM1/IGSF4A; not shown: His tag of the bought protein
# T3 sequence: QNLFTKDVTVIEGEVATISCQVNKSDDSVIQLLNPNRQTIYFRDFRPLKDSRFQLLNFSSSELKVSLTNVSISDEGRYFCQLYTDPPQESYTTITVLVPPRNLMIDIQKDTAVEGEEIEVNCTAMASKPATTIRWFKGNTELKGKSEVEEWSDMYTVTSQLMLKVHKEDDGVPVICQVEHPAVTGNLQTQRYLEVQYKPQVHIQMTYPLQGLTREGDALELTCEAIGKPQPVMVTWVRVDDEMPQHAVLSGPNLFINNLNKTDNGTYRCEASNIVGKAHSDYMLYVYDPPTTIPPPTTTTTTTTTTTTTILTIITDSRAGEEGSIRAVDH
# Assay: ELISA on coated CADM1-His, 150 ng IgG1; None 0.059
# Experimental: as §1, §2
row,Binder,ELISA Absorbance (405 nm-570 nm)
1,B1,0.048
2,B2,0.679
3,B3,0.05
4,B4,0.059
5,B5,0.05
6,B6,0.525

# Target: T4, SLAMF7
# T4 construct: coated protein in the ELISA; also called SLAMF7-StrepTag
# T4 chain: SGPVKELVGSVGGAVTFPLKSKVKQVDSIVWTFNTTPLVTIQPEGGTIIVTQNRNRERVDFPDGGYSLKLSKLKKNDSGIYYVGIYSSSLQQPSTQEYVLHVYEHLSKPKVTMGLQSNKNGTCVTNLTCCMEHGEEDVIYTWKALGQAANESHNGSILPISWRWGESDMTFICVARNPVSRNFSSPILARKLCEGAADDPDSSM
# Assay: ELISA on coated SLAMF7-StrepTag, 150 ng IgG1; None 0.047
# Experimental: as §1, §2
row,Binder,ELISA Absorbance (405 nm-570 nm)
1,B1,0.053
2,B2,0.051
3,B3,0.054
4,B4,0.074
5,B5,0.049
6,B6,0.046

# Target: T5, PTPRG-Fc (ECD of human PTPRG, aa 20-736, fused to human Fc gamma 1) (human, UniProt P23470 20-736)
# T5 construct: Made in-house in Expi293 cells; Used in ELISA and SPR; also called recombinant PTPRG-Fc; PTRPG; not shown: human IgG1 Fc (Fc gamma 1) after the hinge
# T5 sequence: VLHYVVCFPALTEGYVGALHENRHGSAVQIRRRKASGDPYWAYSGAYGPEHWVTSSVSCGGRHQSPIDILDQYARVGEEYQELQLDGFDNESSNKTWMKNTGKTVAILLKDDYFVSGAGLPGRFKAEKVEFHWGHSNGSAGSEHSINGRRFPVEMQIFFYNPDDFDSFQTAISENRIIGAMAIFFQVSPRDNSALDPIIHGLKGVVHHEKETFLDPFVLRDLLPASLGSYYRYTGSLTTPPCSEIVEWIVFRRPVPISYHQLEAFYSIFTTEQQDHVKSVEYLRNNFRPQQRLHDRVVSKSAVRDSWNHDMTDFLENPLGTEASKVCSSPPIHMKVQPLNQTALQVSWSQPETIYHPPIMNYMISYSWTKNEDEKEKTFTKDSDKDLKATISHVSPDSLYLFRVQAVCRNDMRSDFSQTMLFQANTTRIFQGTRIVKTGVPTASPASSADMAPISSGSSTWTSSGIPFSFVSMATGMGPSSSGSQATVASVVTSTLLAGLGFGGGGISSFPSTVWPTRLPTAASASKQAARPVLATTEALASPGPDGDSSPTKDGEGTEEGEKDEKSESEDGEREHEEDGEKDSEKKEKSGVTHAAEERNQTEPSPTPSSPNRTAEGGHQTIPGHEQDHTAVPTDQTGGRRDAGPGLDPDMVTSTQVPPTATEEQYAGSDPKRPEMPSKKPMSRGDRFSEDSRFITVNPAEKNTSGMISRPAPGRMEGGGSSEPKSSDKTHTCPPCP
# Assay: ELISA on coated PTPRG-Fc, 150 ng IgG1; None 0.117
# Experimental: as §1, §2
row,Binder,ELISA Absorbance (405 nm-570 nm)
1,B1,0.756
2,B2,0.096
3,B3,0.122
4,B4,0.102
5,B5,0.069
6,B6,0.097

# Target: T6, HHLA2 (B7-H7)
# T6 construct: coated protein in the ELISA; also called HHLA2-Fc (R&D Systems)
# T6 chain: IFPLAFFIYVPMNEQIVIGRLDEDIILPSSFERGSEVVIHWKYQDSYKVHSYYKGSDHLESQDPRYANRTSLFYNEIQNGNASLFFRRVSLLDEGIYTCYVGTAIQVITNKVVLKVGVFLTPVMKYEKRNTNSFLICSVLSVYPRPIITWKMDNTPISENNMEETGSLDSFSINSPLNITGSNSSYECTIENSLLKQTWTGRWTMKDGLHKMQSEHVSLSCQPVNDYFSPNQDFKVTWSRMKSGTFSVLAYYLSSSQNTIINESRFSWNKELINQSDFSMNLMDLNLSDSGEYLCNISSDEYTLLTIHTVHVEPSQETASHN
# Assay: ELISA on coated HHLA2-Fc
# Experimental: as §1, §2
row,Binder,binding result
1,B1,no binding (tested: 150 ng IgG1 per well)
2,B2,no binding (tested: 150 ng IgG1 per well)
3,B3,no binding (tested: 150 ng IgG1 per well)
4,B4,no binding (tested: 150 ng IgG1 per well)
5,B5,no binding (tested: 150 ng IgG1 per well)
6,B6,no binding (tested: 150 ng IgG1 per well)

# Target: T6, HHLA2 (B7-H7)
# Assay: ELISA on coated HHLA2-Fc, 150 ng IgG1; None 0.087
# Experimental: as §1, §2
row,Binder,ELISA Absorbance (405 nm-570 nm)
1,B1,0.076
2,B2,0.079
3,B3,0.072
4,B4,0.076
5,B5,0.073
6,B6,0.069
